# Laboratory results published in patent US20220049021A1.
# Target: T1, human FLT3 on AML5 cells (human) (UniProt P36888)
# T1 sequence (looked up): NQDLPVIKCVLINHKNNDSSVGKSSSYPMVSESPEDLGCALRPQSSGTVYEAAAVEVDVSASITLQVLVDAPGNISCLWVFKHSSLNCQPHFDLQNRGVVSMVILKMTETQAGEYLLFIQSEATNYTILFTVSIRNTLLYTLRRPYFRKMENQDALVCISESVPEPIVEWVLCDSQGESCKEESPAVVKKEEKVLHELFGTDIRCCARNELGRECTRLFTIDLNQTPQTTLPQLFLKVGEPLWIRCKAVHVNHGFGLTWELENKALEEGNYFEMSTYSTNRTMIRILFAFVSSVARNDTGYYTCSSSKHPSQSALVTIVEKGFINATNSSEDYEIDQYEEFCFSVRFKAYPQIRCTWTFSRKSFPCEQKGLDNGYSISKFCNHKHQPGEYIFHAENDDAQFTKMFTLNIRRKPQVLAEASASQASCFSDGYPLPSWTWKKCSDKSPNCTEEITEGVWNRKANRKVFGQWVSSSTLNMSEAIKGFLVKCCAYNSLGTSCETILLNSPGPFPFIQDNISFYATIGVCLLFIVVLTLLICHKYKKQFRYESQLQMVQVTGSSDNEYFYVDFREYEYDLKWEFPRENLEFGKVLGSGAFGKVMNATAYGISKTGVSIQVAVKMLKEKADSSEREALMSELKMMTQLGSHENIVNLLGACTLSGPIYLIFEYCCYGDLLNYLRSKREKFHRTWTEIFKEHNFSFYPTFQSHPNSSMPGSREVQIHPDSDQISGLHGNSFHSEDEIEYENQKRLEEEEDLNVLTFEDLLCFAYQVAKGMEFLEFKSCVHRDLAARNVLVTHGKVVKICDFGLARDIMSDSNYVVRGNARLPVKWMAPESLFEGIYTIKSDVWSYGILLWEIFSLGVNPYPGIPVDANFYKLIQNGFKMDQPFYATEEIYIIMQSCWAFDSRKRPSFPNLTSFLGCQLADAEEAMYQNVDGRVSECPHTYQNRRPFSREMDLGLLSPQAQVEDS
# Experiment: cell-based or functional assay
# human FLT3-ligand (H8Y) human hingeless IgG1 fusion protein (SEQ ID NO:22) (Fc fusion), sequence (chain): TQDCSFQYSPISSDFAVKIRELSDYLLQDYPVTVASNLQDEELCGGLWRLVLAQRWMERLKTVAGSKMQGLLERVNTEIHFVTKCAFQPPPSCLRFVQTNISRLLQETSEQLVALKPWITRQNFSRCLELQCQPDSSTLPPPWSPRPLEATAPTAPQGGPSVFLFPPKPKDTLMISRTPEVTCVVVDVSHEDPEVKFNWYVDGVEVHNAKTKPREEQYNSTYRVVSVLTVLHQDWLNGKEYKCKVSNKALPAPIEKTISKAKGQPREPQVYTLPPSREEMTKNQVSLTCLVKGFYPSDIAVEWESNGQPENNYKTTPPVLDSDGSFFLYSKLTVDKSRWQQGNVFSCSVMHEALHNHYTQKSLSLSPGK
# human FLT3-ligand human IgG1 fusion protein (SEQ ID NO:21) (Fc fusion), sequence (chain): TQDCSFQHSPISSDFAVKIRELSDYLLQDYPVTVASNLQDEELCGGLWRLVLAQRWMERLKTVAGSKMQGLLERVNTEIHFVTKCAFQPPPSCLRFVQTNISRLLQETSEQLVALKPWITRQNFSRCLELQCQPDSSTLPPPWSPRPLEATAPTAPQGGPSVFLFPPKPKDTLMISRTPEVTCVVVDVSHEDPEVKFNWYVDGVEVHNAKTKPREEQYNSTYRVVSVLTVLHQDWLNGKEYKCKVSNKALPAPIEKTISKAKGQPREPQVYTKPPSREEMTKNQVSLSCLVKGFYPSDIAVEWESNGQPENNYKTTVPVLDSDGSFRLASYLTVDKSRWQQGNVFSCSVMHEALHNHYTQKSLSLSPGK
Substance,"EC50 (nM), Inducing Proliferation of AML5 Cells [nM]",potency in AML5 proliferation against SEQ ID NO:1 [fold]
human FLT3-ligand human IgG1 fusion protein (SEQ ID NO:21) (Fc fusion),0.035,–
human FLT3-ligand (H8Y+K84E) human hingeless IgG1 fusion protein (SEQ ID NO:24) (Fc fusion),0.013,2.5
human FLT3-ligand (K84E) human hingeless IgG1 fusion protein (SEQ ID NO:23) (Fc fusion),0.013,2.5
human FLT3-ligand (H8Y) human hingeless IgG1 fusion protein (SEQ ID NO:22) (Fc fusion),0.014,2.5
